Article PMC3864954

Key:
Assay in all cases: ELISA; APP fragment (12.2 nM, 50 µL/well) plated at 4°C overnight; p75^NTR ECD-Fc or IgG-Fc added at the indicated concentrations for 2 h at room temperature; detected by anti-human IgG-Fc; EC50 from sigmoid dose-response curve
[1] = molecular target: Soluble β-amyloid Precursor Protein Alpha (sAPPα), recombinant, His-tagged (UniProt P05067)
[2] = molecular target: sAPPβ, recombinant, His-tagged
[3] = molecular target: C-sAPPα (sAPPα 304–612), recombinant, His-tagged (UniProt P05067)

EC50 [1]: 90 nM
EC50 [2]: 120 nM
EC50 [3]: 150 nM
Substance: recombinant p75^NTR extracellular domain fused to human Fc (p75^NTR ECD-Fc) chimera protein (from UniProt P08138 29-250) (Fc fusion)
